Assay results from patent US20240321457A1 (University of California, published 2024).
Substitutions are numbered along the chain they refer to. Names may count otherwise.

B1: BRCA1 5382insC (enzyme, human, UniProt P38398 1-1755, looked up)
chain: MDLSALRVEEVQNVINAMQKILECPICLELIKEPVSTKCDHIFCKFCMLKLLNQKKGPSQCPLCKNDITKRSLQESTRFSQLVEELLKIICAFQLDTGLEYANSYNFAKKENNSPEHLKDEVSIIQSMGYRNRAKRLLQSEPENPSLQETSLSVQLSNLGTVRTLRTKQRIQPQKTSVYIELGSDSSEDTVNKATYCSVGDQELLQITPQGTRDEISLDSAKKAACEFSETDVTNTEHHQPSNNDLNTTEKRAAERHPEKYQGSSVSNLHVEPCGTNTHASSLQHENSSLLLTKDRMNVEKAEFCNKSKQPGLARSQHNRWAGSKETCNDRRTPSTEKKVDLNADPLCERKEWNKQKLPCSENPRDTEDVPWITLNSSIQKVNEWFSRSDELLGSDDSHDGESESNAKVADVLDVLNEVDEYSGSSEKIDLLASDPHEALICKSERVHSKSVESNIEDKIFGKTYRKKASLPNLSHVTENLIIGAFVTEPQIIQERPLTNKLKRKRRPTSGLHPEDFIKKADLAVQKTPEMINQGTNQTEQNGQVMNITNSGHENKTKGDSIQNEKNPNPIESLEKESAFKTKAEPISSSISNMELELNIHNSKAPKKNRLRRKSSTRHIHALELVVSRNLSPPNCTELQIDSCSSSEEIKKKKYNQMPVRHSRNLQLMEGKEPATGAKKSNKPNEQTSKRHDSDTFPELKLTNAPGSFTKCSNTSELKEFVNPSLPREEKEEKLETVKVSNNAEDPKDLMLSGERVLQTERSVESSSISLVPGTDYGTQESISLLEVSTLGKAKTEPNKCVSQCAAFENPKGLIHGCSKDNRNDTEGFKYPLGHEVNHSRETSIEMEESELDAQYLQNTFKVSKRQSFAPFSNPGNAEEECATFSAHSGSLKKQSPKVTFECEQKEENQGKNESNIKPVQTVNITAGFPVVGQKDKPVDNAKCSIKGGSRFCLSSQFRGNETGLITPNKHGLLQNPYRIPPLFPIKSFVKTKCKKNLLEENFEEHSMSPEREMGNENIPSTVSTISRNNIRENVFKEASSSNINEVGSSTNEVGSSINEIGSSDENIQAELGRNRGPKLNAMLRLGVLQPEVYKQSLPGSNCKHPEIKKQEYEEVVQTVNTDFSPYLISDNLEQPMGSSHASQVCSETPDDLLDDGEIKEDTSFAENDIKESSAVFSKSVQKGELSRSPSPFTHTHLAQGYRRGAKKLESSEENLSSEDEELPCFQHLLFGKVNNIPSQSTRHSTVATECLSKNTEENLLSLKNSLNDCSNQVILAKASQEHHLSEETKCSASLFSSQCSELEDLTANTNTQDPFLIGSSKQMRHQSESQGVGLSDKELVSDDEERGTGLEENNQEEQSMDSNLGEAASGCESETSVSEDCSGLSSQSDILTTQQRDTMQHNLIKLQQEMAELEAVLEQHGSQPSNSYPSIISDSSALEDLRNPEQSTSEKAVLTSQKSSEYPISQNPEGLSADKFEVSADSSTSKNKEPGVERSSPSKCPSLDDRWYMHSCSGSLQNRNYPSQEELIKVVDVEEQQLEESGPHDLTETSYLPRQDLEGTPYLESGISLFSDDPESDPSEDRAPESARVGNIPSSTSALKVPQLKVAESAQSPAAAHTTDTAGYNAMEESVSREKPELTASTERVNKRMSMVVSGLTPEEFMLVYKFARKHHITLTNLITEETTHVVMKTDAEFVCERTLKYFLGIAGGKWVVSYFWVTQSIKERKMLNEHDFEVRGDVVNGRNHQGPKRARESPGQKDLQGARNLLLWALHQHAHRSTGMDGTAVWCFCGEGAFIIHPWHRCPPNCGCAARCLDRGQWLPCNWADV
notes: 3xFLAG-tagged bait; also called 5832insC
B2: BRCA1 C61G (enzyme, human, UniProt P38398 1-1863, looked up)
chain: MDLSALRVEEVQNVINAMQKILECPICLELIKEPVSTKCDHIFCKFCMLKLLNQKKGPSQGPLCKNDITKRSLQESTRFSQLVEELLKIICAFQLDTGLEYANSYNFAKKENNSPEHLKDEVSIIQSMGYRNRAKRLLQSEPENPSLQETSLSVQLSNLGTVRTLRTKQRIQPQKTSVYIELGSDSSEDTVNKATYCSVGDQELLQITPQGTRDEISLDSAKKAACEFSETDVTNTEHHQPSNNDLNTTEKRAAERHPEKYQGSSVSNLHVEPCGTNTHASSLQHENSSLLLTKDRMNVEKAEFCNKSKQPGLARSQHNRWAGSKETCNDRRTPSTEKKVDLNADPLCERKEWNKQKLPCSENPRDTEDVPWITLNSSIQKVNEWFSRSDELLGSDDSHDGESESNAKVADVLDVLNEVDEYSGSSEKIDLLASDPHEALICKSERVHSKSVESNIEDKIFGKTYRKKASLPNLSHVTENLIIGAFVTEPQIIQERPLTNKLKRKRRPTSGLHPEDFIKKADLAVQKTPEMINQGTNQTEQNGQVMNITNSGHENKTKGDSIQNEKNPNPIESLEKESAFKTKAEPISSSISNMELELNIHNSKAPKKNRLRRKSSTRHIHALELVVSRNLSPPNCTELQIDSCSSSEEIKKKKYNQMPVRHSRNLQLMEGKEPATGAKKSNKPNEQTSKRHDSDTFPELKLTNAPGSFTKCSNTSELKEFVNPSLPREEKEEKLETVKVSNNAEDPKDLMLSGERVLQTERSVESSSISLVPGTDYGTQESISLLEVSTLGKAKTEPNKCVSQCAAFENPKGLIHGCSKDNRNDTEGFKYPLGHEVNHSRETSIEMEESELDAQYLQNTFKVSKRQSFAPFSNPGNAEEECATFSAHSGSLKKQSPKVTFECEQKEENQGKNESNIKPVQTVNITAGFPVVGQKDKPVDNAKCSIKGGSRFCLSSQFRGNETGLITPNKHGLLQNPYRIPPLFPIKSFVKTKCKKNLLEENFEEHSMSPEREMGNENIPSTVSTISRNNIRENVFKEASSSNINEVGSSTNEVGSSINEIGSSDENIQAELGRNRGPKLNAMLRLGVLQPEVYKQSLPGSNCKHPEIKKQEYEEVVQTVNTDFSPYLISDNLEQPMGSSHASQVCSETPDDLLDDGEIKEDTSFAENDIKESSAVFSKSVQKGELSRSPSPFTHTHLAQGYRRGAKKLESSEENLSSEDEELPCFQHLLFGKVNNIPSQSTRHSTVATECLSKNTEENLLSLKNSLNDCSNQVILAKASQEHHLSEETKCSASLFSSQCSELEDLTANTNTQDPFLIGSSKQMRHQSESQGVGLSDKELVSDDEERGTGLEENNQEEQSMDSNLGEAASGCESETSVSEDCSGLSSQSDILTTQQRDTMQHNLIKLQQEMAELEAVLEQHGSQPSNSYPSIISDSSALEDLRNPEQSTSEKAVLTSQKSSEYPISQNPEGLSADKFEVSADSSTSKNKEPGVERSSPSKCPSLDDRWYMHSCSGSLQNRNYPSQEELIKVVDVEEQQLEESGPHDLTETSYLPRQDLEGTPYLESGISLFSDDPESDPSEDRAPESARVGNIPSSTSALKVPQLKVAESAQSPAAAHTTDTAGYNAMEESVSREKPELTASTERVNKRMSMVVSGLTPEEFMLVYKFARKHHITLTNLITEETTHVVMKTDAEFVCERTLKYFLGIAGGKWVVSYFWVTQSIKERKMLNEHDFEVRGDVVNGRNHQGPKRARESQDRKIFRGLEICCYGPFTNMPTDQLEWMVQLCGASVVKELSSFTLGTGVHPIVVVQPDAWTEDNGFHAIGQMCEAPVVTREWVLDSVALYQCQELDTYLIPQIPHSHY
notes: 3xFLAG-tagged bait; also called RING domain mutant C61G
B3: BRIP1 (enzyme, human, UniProt Q9BX63 1-1249, looked up)
chain: MSSMWSEYTIGGVKIYFPYKAYPSQLAMMNSILRGLNSKQHCLLESPTGSGKSLALLCSALAWQQSLSGKPADEGVSEKAEVQLSCCCACHSKDFTNNDMNQGTSRHFNYPSTPPSERNGTSSTCQDSPEKTTLAAKLSAKKQASIYRDENDDFQVEKKRIRPLETTQQIRKRHCFGTEVHNLDAKVDSGKTVKLNSPLEKINSFSPQKPPGHCSRCCCSTKQGNSQESSNTIKKDHTGKSKIPKIYFGTRTHKQIAQITRELRRTAYSGVPMTILSSRDHTCVHPEVVGNFNRNEKCMELLDGKNGKSCYFYHGVHKISDQHTLQTFQGMCKAWDIEELVSLGKKLKACPYYTARELIQDADIIFCPYNYLLDAQIRESMDLNLKEQVVILDEAHNIEDCARESASYSVTEVQLRFARDELDSMVNNNIRKKDHEPLRAVCCSLINWLEANAEYLVERDYESACKIWSGNEMLLTLHKMGITTATFPILQGHFSAVLQKEEKISPIYGKEEAREVPVISASTQIMLKGLFMVLDYLFRQNSRFADDYKIAIQQTYSWTNQIDISDKNGLLVLPKNKKRSRQKTAVHVLNFWCLNPAVAFSDINGKVQTIVLTSGTLSPMKSFSSELGVTFTIQLEANHIIKNSQVWVGTIGSGPKGRNLCATFQNTETFEFQDEVGALLLSVCQTVSQGILCFLPSYKLLEKLKERWLSTGLWHNLELVKTVIVEPQGGEKTNFDELLQVYYDAIKYKGEKDGALLVAVCRGKVSEGLDFSDDNARAVITIGIPFPNVKDLQVELKRQYNDHHSKLRGLLPGRQWYEIQAYRALNQALGRCIRHRNDWGALILVDDRFRNNPSRYISGLSKWVRQQIQHHSTFESALESLAEFSKKHQKVLNVSIKDRTNIQDNESTLEVTSLKYSTSPYLLEAASHLSPENFVEDEAKICVQELQCPKIITKNSPLPSSIISRKEKNDPVFLEEAGKAEKIVISRSTSPTFNKQTKRVSWSSFNSLGQYFTGKIPKATPELGSSENSASSPPRFKTEKMESKTVLPFTDKCESSNLTVNTSFGSCPQSETIISSLKIDATLTRKNHSEHPLCSEEALDPDIELSLVSEEDKQSTSNRDFETEAEDESIYFTPELYDPEDTDEEKNDLAETDRGNRLANNSDCILAKDLFEIRTIKEVDSAREVKAEDCIDTKLNGILHIEESKIDDIDGNVKTTWINELELGKTHEIEIKNFKPSPSKNKGMFPGFK
notes: endogenous prey from cell lysate
B4: BRCA1 R71G (enzyme, human, UniProt P38398 1-1863, looked up)
chain: B2 chain with G61C, R71G
notes: 3xFLAG-tagged bait; also called RING domain mutant R71G
B5: BRCA1 M1775R (enzyme, human, UniProt P38398 1-1863, looked up)
chain: B2 chain with G61C, M1775R
notes: 3xFLAG-tagged bait; also called BRCT domain mutant M1775R
B6: BRCA1 S1655F (enzyme, human, UniProt P38398 1-1863, looked up)
chain: B2 chain with G61C, S1655F
notes: 3xFLAG-tagged bait; also called BRCT domain mutant S1655F; 51655F

Tests used:
UBE2N = biological target: T1, UBE2N (human, UniProt P61088 1-152); experiment: AP-MS, PPI score from compPASS and SAINTexpress, MDA-MB-231 cells
T1 construct: endogenous prey from cell lysate; also called UBC13
T1 sequence (looked up): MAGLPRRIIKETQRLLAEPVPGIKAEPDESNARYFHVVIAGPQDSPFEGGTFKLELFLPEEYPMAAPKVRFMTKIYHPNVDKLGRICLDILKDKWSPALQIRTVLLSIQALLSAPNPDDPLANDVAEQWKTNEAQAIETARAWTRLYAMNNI

BRCA1 S1655F = biological target: B6; experiment: AP-MS, MSstats WT vs mutant, MDA-MB-231 cells
BRCA1 5382insC = biological target: B1; experiment: AP-MS, MSstats WT vs mutant, MDA-MB-231 cells
BRCA1 M1775R = biological target: B5; experiment: AP-MS, MSstats WT vs mutant, MDA-MB-231 cells

In the case of B1, the PPI score (UBE2N) is reported as < 0.6.

In the case of B2, the PPI score (UBE2N) is reported as < 0.6.

B3: no binding (BRCA1 S1655F); no binding (BRCA1 5382insC); no binding (BRCA1 M1775R).

In the case of B4, the PPI score (UBE2N) is reported as < 0.6.

With B5 the PPI score (UBE2N) was < 0.6.

For B6, the PPI score (UBE2N) was < 0.6.
